Measurements as given in patent US7507799.

Key:
[1] = test system: His-tagged cleavage resistant pro-NGF (point mutant, K-R cleavage site at 120,121 mutated to A-A)
[2] = test system: T1, rat BDNF secreted by adenovirus-infected 293T or endothelial cells (proforms of 30 kDa and 28 kDa)
T1 sequence: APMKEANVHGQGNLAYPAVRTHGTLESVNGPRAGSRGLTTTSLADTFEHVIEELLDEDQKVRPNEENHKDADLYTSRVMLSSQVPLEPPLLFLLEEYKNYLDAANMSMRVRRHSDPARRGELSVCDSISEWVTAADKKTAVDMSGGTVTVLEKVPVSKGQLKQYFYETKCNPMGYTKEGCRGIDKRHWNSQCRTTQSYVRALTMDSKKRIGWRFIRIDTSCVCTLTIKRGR

[3] = biological target: TrkA on 293 cells; assay: whole-cell competition against 1 nM 125I-NGF on 293 cells expressing only trk A
[4] = biological target: p75 on vascular smooth muscle cell line (p75Ts-Tag-SMC); assay: cell-based or functional assay
[5] = biological target: trk A on trk A-overexpressing PC12 cells; assay: cell-based or functional assay
[6] = biological target: trk A (autophosphorylation assay of Example 5); assay: cell-based or functional assay
[7] = biological target: p75NTR on A875 cells (UniProt P08138); assay: whole-cell competition against 1 nM 125I-NGF on cells expressing only p75 (A875 cells)
Chain of p75NTR on A875 cells (P08138 29-427): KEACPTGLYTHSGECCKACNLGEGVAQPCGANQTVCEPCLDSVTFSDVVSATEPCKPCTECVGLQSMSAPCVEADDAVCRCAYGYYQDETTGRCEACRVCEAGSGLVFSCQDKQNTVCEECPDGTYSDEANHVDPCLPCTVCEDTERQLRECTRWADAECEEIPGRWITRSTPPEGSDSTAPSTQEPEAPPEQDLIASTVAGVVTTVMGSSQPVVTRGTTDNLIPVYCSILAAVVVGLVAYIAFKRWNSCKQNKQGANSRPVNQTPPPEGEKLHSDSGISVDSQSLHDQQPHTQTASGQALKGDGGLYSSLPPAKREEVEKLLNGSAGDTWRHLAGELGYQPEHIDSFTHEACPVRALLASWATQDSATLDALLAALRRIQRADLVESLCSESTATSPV

Chain of commercial mature NGF (Enzo Products for Science, Farmingdale, N.Y.) (ligand) (P01139 122-241): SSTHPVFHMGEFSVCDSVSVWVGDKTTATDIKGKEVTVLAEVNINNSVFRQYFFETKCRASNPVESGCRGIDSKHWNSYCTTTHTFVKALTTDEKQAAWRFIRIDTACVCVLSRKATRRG
Chain of plasmin (P00747 20-580): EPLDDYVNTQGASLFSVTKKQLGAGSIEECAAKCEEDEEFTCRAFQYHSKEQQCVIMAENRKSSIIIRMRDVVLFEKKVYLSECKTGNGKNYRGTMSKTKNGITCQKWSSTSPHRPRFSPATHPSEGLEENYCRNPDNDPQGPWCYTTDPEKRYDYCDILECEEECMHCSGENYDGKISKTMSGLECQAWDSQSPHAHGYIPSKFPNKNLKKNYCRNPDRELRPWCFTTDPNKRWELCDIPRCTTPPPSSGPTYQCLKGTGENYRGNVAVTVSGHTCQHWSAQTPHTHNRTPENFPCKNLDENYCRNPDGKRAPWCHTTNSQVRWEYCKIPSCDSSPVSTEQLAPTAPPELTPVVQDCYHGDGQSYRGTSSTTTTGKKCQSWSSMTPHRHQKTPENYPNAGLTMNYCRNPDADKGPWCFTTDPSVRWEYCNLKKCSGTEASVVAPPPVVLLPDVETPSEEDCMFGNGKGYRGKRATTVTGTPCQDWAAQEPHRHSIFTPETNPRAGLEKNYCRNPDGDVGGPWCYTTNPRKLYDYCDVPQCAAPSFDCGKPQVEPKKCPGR
Chain of plasmin (P00747 581-810): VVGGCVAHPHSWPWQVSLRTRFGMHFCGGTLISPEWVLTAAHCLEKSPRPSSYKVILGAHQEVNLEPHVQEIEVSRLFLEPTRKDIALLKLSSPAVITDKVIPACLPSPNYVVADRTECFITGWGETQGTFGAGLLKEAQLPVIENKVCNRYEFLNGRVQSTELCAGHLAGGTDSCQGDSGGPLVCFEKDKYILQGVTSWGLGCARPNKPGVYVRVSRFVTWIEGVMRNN
Chain of TrkA on 293 cells (P04629 33-796): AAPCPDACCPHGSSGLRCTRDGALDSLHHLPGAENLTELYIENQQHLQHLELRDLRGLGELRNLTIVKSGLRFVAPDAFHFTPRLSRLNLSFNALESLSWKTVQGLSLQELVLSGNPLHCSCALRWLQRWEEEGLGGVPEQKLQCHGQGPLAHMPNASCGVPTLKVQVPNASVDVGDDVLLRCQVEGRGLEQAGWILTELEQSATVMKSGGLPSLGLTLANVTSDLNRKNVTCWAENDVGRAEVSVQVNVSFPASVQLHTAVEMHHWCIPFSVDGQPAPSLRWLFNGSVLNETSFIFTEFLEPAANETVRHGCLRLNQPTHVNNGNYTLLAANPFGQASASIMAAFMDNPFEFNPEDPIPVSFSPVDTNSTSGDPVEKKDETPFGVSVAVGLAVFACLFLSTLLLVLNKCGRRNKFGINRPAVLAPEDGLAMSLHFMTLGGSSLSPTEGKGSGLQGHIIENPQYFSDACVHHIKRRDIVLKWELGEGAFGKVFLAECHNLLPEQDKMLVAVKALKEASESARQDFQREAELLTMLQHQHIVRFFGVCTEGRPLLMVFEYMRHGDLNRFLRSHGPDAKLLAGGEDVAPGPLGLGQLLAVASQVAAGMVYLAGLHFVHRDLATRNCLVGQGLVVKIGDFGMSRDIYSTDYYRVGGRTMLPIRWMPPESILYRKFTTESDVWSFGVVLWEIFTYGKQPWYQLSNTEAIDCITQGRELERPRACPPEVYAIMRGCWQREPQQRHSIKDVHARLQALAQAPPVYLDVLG
Chain of commercial mature NGF (Enzo Products for Science, Farmingdale, N.Y.) (ligand; other documents disagree on this pair) (P01139 122-241): as the sequence (P01139 122-241) above

**Q.** What does the source list for plasmin?
**A.** proteolytic cleavage, Western blot [1]: Pro-NGF was cleaved by plasmin to a 13 kD form; proteolytic cleavage in endothelial media, Western blot [2]: In endothelial media, only plasmin and MMP-7 appeared to cleave the large proform

**Q.** How did the IC50 [3] turn out when “commercial mature NGF (Enzo Products for Science, Farmingdale, N.Y.) (ligand; other documents disagree on this pair)” was run?
**A.** 1.2 nM

**Q.** For “commercial mature NGF (Enzo Products for Science, Farmingdale, N.Y.) (ligand)”, which TUNEL positive cells at 18 h (% TUNEL positive cells at 2 nM) [4] is on record?
**A.** 20

**Q.** What about the PC12 cell neuritogenesis [5] of the same substance?
**A.** 0.1 nM

**Q.** What about the trk A autophosphorylation [6] of the same substance?
**A.** 0.2 nM

**Q.** And the IC50 [7]?
**A.** 1 nM

**Q.** “His-tagged native NGF, completely processed to the mature form of 13.5 kDa (from UniProt P01139 122-241) (ligand)” was tested. Which PC12 cell neuritogenesis [5] did it give?
**A.** 0.1 nM

**Q.** What about the trk A autophosphorylation [6] of the same substance?
**A.** 0.2 nM
